The source of these data is the supplement of paper PMC12042874.

A short description of this data set: amyloid nucleation score (Sup35N fusion, yeast selection) (log enrichment); library NNK2; higher = more nucleation; inactive = no reads after selection. A digest of the protocol: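 Nucleation score: DiMSum log enrichment of output over input reads, centred on the mode score of non-aggregating sequences. Only sequences with at least 100 input reads were kept. Reads came from Illumina sequencing of plasmid inserts before and after 7 days of growth at 30°C without adenine and uracil, in psi-negative yeast expressing Sup35N fused to peptides of 20 random codons after 24 hours of induction with 100 μM copper sulfate.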

± gives the uncertainty stated by the source.

In turn, VRFLVISINAYSVDVPHISI displayed an amyloid nucleation score of -1.63 ± 1.1. To NWDNSNLVFLYNSGLGNYVS belongs -0.874 ± 0.78. To ERVDVI belongs -0.364 ± 0.32.

In turn, LCSSKETDMPFLVLQSLKSN displayed an amyloid nucleation score of -0.791 ± 0.78. Regarding GSYPGRLFTCVKMGVT, the amyloid nucleation score was determined as 0.363 ± 0.65. TVSYKWSSMEVITKYKGWSR yielded an amyloid nucleation score of 0.897 ± 0.28. With IDSYLNTSKASRVPCDLRAL, the amyloid nucleation score is 0.67 ± 0.81. On to NNVPCEKHRHASMYINAA, for which the amyloid nucleation score was -0.081 ± 1.1. To GKCRRPMCGGKFGDQGLLRL belongs 3.27 ± 0.11. In the case of FSMMFIL, the amyloid nucleation score came out at 3.57 ± 0.075. To CYRHSERYRTSSLLSWERGP belongs 0.783 ± 0.57. LCNSEIFNMANISMS: the amyloid nucleation score was determined as 0.498 ± 0.19. To WSYCVNERSVIKQGLTCAYV belongs -0.28 ± 0.76. Regarding LCVYMFT, the amyloid nucleation score turned out to be 3.51 ± 0.12.

The substance AVYCTL registered an amyloid nucleation score of 0.088 ± 0.35. Turning to DHPYTRKFI, the amyloid nucleation score was -0.311 ± 0.79. For the substance CVGGVSNCMRYGKTFRDESY, the amyloid nucleation score is -0.438 ± 0.27.

In turn, VYCRNVELIGAYGIFAGSHI displayed an amyloid nucleation score of -0.187 ± 0.79. GDDDVVVDDQNLKCDGYTDL yielded an amyloid nucleation score of 1.03 ± 0.24. Substance DWFGLCFMKRFKFGEYKACM yielded an amyloid nucleation score of -1.04 ± 0.48.

HSTIAVSCY registered an amyloid nucleation score of 0.219 ± 1. To AVSYVDILAFGLMFQKSLGK belongs 5.74 ± 0.063; to VYKYI, -0.578 ± 1.1; to DRVQG, 1.2 ± 0.22. To RVADVCTQVMRGL belongs 1.9 ± 0.33; to VACCFNSQYSEAI, 3.99 ± 0.076; to ILLISVCYRNIVYISSSLMG, -0.172 ± 0.21. Consider VIFVVNIFHLYWLRVC, for which the amyloid nucleation score amounted to 0.748 ± 0.58. LVRTLAYCASKNNFVRL: the amyloid nucleation score was -0.038 ± 0.63. Consider NSKKWSQGIGTYSDRAFYVF, for which the amyloid nucleation score entry is “inactive”.

On to VDWFLYFCSPTFCHVL, for which the amyloid nucleation score was found to be 8.741 ± 0.063.

Turning to KHLRFASEVNFSARVPPPWL, the amyloid nucleation score is -0.229 ± 0.33.

For the substance SDQQYGCDWVWLGRGPIEVA, the amyloid nucleation score is 0.252 ± 0.28. IVYWSSEWRKPGAHDTLD: the amyloid nucleation score turned out to be 0.451 ± 0.24. On to SGWVLGYSCRKLLLGGLSRG, for which the amyloid nucleation score is 1.48 ± 0.31. VWNSIDTIYIYRHNYGFFYF: the amyloid nucleation score is 0.751 ± 0.36. Turning to IYEGIIVIFSDTGTLWRYWI, the amyloid nucleation score was -2.09 ± 0.54. Substance SGHTRVGDFSF registered an amyloid nucleation score of 0.158 ± 0.3. To LGYGRWCKVARPEYESGLTM belongs 0.042 ± 1.1. PVIIAW had an amyloid nucleation score of 0.14 ± 1. In turn, VGSDWKSVNIFAVDEPGSTY came in with an amyloid nucleation score of -1.43 ± 0.55. Consider FRYLYVLYGFYMVVTWYLRV, for which the amyloid nucleation score was -0.088 ± 0.63.

Substance VGSVK had an amyloid nucleation score of -0.394 ± 1.1. For the substance PCERPFERFLVLNRFSDSST, the amyloid nucleation score was 0.183 ± 0.62.

GVVPQGMMTI: the amyloid nucleation score is -0.701 ± 0.55.

For SSFRVELHRCFVKVFLLLY, the amyloid nucleation score is -0.266 ± 1. The substance VSACSDLNGW showed an amyloid nucleation score of -0.233 ± 0.47. To TITCLFKVRRCVYV belongs -0.325 ± 0.55; to NSSTVGMIAF, -0.317 ± 0.22; to RLTYCSQFVWTWCCNRAING, 9.062 ± 0.024. To LLYCYSLFVVSFDYTFHQRF belongs 6.15 ± 0.062; to WCGARLKSDLCILK, -0.494 ± 0.31. In turn, SYTSAYSRYIWRHQIIMGKK had an amyloid nucleation score of -1.11 ± 0.42. In turn, FYESKMGVMINFNWFYDTTS showed an amyloid nucleation score of 6.88 ± 0.069. To LVEGCILSRHQESVNLRFCL belongs 1.22 ± 0.29. To RPGMARVFNAA belongs 0.673 ± 0.36; to FVPFYYKADKLTILSS, “inactive”. VGCPEMGLVSLGSLLRLGSA displayed an amyloid nucleation score of 0.968 ± 0.39.

Regarding CVNITYI, the amyloid nucleation score was 4.625 ± 0.031.

For the substance PMAPSCLYRIIIMN, the amyloid nucleation score came out at 1.51 ± 0.26. For the substance YHRCMKGVRDFVKLVDDCML, the amyloid nucleation score was -1.09 ± 0.49. GGTNYANLMLALWFVVMIST showed an amyloid nucleation score of -0.295 ± 0.44.

RYRTMSTRHPAYGVGGLLLM returned an amyloid nucleation score of 0.544 ± 0.36. As to PTIMLTGR, the amyloid nucleation score came out at 0.208 ± 0.65. Consider RTGRDFLSSIFFTSK, for which the amyloid nucleation score is -1.8 ± 0.41. On to FFLIRSMGSSSAYRLRVCWR, for which the amyloid nucleation score was -0.37 ± 0.76. DYWFRGAESCTCGLE yielded an amyloid nucleation score of 0.012 ± 0.63.

The substance ICTALGGWWSKEVMSADMFL yielded an amyloid nucleation score of 0.811 ± 0.67.

As for TQPPNCQVYKRDDTCYWCGS, the amyloid nucleation score is -0.509 ± 0.33.

Consider IIMLYEYHLITGTMNAMHRV, for which the amyloid nucleation score entry was “inactive”. Consider KYRTYPGVGIIGRVDSSLRT, for which the amyloid nucleation score worked out at 0.741 ± 0.51. As to MLFGFFGIPRGSRVLFSNV, the amyloid nucleation score entry is “inactive”.

SYADRVILLVSCVVPWAPLR: the amyloid nucleation score was determined as 3.31 ± 0.15. PFSRLNPRDPLWVEMFVCWQ showed an amyloid nucleation score of 3.48 ± 0.066. CFRNWACMSSQRYCMVVRGN returned an amyloid nucleation score of -1.58 ± 0.54.

For KRTWRFFYRL, the amyloid nucleation score entry was “inactive”. To VRGYCGFALQLVRCEWRICS belongs 7.272 ± 0.06; to AMRFLALAWWTPGFSIGELM, 4.846 ± 0.035. To CHKSACCKILVDDIALFN belongs -0.419 ± 0.32. To PEDLLGRWIIFSYVFTIYSI belongs “inactive”.

AYYFVLNVSTNLGNLGRTIL showed an amyloid nucleation score of 4.35 ± 0.11. Substance WIWEKSHWSENISMVRCDVS returned an amyloid nucleation score of 0.379 ± 0.55. Regarding SDVKYIGMCSCQHSFIMMGM, the amyloid nucleation score was found to be 0.372 ± 0.36. IIRTTSNRPTPLRCSPNLSM yielded an amyloid nucleation score of -0.779 ± 0.33. To RTYEMKAMRVASWQSS belongs 1.9 ± 0.098.

Substance SRTIGTMQLVTMNWCFRKEA came in with an amyloid nucleation score of 5.37 ± 0.045. To MRVNECCKAEGSQGRLARLV belongs 0.97 ± 0.55; to YWSETCLSMGENEHFNSWKI, “inactive”.

CIMVSIVPKGVCLGVLVAVA yielded an amyloid nucleation score of 0.345 ± 0.28. For the substance SARSIERSDYPMINARHHAC, the amyloid nucleation score was 0.031 ± 0.34. For the substance ASPFRF, the amyloid nucleation score is 0.816 ± 0.74. Turning to TRLPEMGLMDLITRSCYNRD, the amyloid nucleation score was -1.35 ± 0.75. FDCRNIREMHTRVYNSCTHP registered an amyloid nucleation score of -0.266 ± 1. To FSQFMKLNSRFIRRYMWCVL belongs -0.891 ± 0.55; to HQAWSCSTVGFDLAVVNFAD, -0.197 ± 0.43. For PVGVDLWCGSQSNSLNAFLH, the amyloid nucleation score entry is “inactive”.

With SGMWSNRDEALSCWRG, the amyloid nucleation score came out at 0.29 ± 0.54. To LDLNFEWFW belongs “inactive”; to NALVVLDMFLTIRSSVKGFI, “inactive”; to CTTSWKMSCKFALGN, 4.04 ± 0.07. Turning to RSFIGDNYISLRC, the amyloid nucleation score is -0.184 ± 0.29. For the substance ILYGGSPSLYVYAYTKN, the amyloid nucleation score is 4.35 ± 0.11. With TNSGMWGKLSACFYFVMQYL, the amyloid nucleation score was -0.936 ± 0.27.

For NVERSFGAVGQVRIEEYARD, the amyloid nucleation score turned out to be 0.266 ± 1. FRALFSNVVRVDMAMAAGFL displayed an amyloid nucleation score of -1.79 ± 0.78.

In the case of QVLLGTLHKVY, the amyloid nucleation score is 1.4 ± 0.49. For the substance VWPLNYYGWKTNMSSCFHST, the amyloid nucleation score is -1.1 ± 1.1. The substance WSVCKRLCNVEMLAENLAID registered an amyloid nucleation score of -0.67 ± 0.79.

KTFTPSIELGYMGHCDCDT: the amyloid nucleation score is -1.03 ± 0.45.

With AWMRDLCSVYRCVGCDLLWA, the amyloid nucleation score was determined as 6.25 ± 0.081. With SFACVSLIFISY, the amyloid nucleation score is 5.72 ± 0.063. KRKISDSSPRDRWVALLKKL returned an amyloid nucleation score of 2.15 ± 0.15. To FNDLMYVNYLLCMVH belongs 4.04 ± 0.095. For the substance ALYFVIQLPV, the amyloid nucleation score is -0.677 ± 0.63.

In turn, ICISGAFNVTAHLKLAQASL gave an amyloid nucleation score of 0.295 ± 1. In turn, PARMNLYVCIYV had an amyloid nucleation score of 7.32 ± 0.081. For the substance PWETRSNA, the amyloid nucleation score is -0.012 ± 0.46. In the case of LTSCGLVWCSIRRPGMKALV, the amyloid nucleation score was -0.077 ± 0.76.

NMFGLPKLVLSDLVVRV had an amyloid nucleation score of 1.72 ± 0.15. To RMSHWLSYWVDKS belongs 0.938 ± 0.57.

Regarding NDCRMFRELTYVPHRERC, the amyloid nucleation score turned out to be 0.708 ± 0.49. Substance PILADGLCIFNR had an amyloid nucleation score of -0.47 ± 0.34. ILSLIYGA: the amyloid nucleation score was -0.084 ± 0.54. In turn, IQINLLNSGYSFRLRASKFS had an amyloid nucleation score of 2.89 ± 0.075. As to VLWTIKGFPC, the amyloid nucleation score is 1.63 ± 0.11. Turning to DYYNRVISASVYSLGGCC, the amyloid nucleation score is 2.82 ± 0.075. The substance NKLFPAWLPMCVFWFYGFLA showed an amyloid nucleation score of -0.138 ± 0.53. Substance AVVDH had an amyloid nucleation score of 0.336 ± 0.41.

Consider YCGDLRCCKTHLSCRSCVSN, for which the amyloid nucleation score result is “inactive”. In turn, GMADWNWFFPILFDPMGTGL displayed an amyloid nucleation score of -0.357 ± 0.49. To DFLVYCGLLEQLWLLSDAKC belongs -0.356 ± 1.1.

On to CLYRRLYKLALNMEIIILRY, for which the amyloid nucleation score entry was “inactive”. The substance VLDHDGVVVWNFFPHMYSDP showed an amyloid nucleation score of 4.63 ± 0.05. The substance CWRVDSFVLGNHNGIGVCFV registered an amyloid nucleation score of -0.918 ± 0.41.

For KCWLLGHWEDFCTLSKMERN, the amyloid nucleation score result was “inactive”. In turn, LHFSGFTKFRFIMVFGKKVC came in with an amyloid nucleation score of -1.24 ± 0.49. To MGAYEGDRVQMLEHADFRKN belongs -0.355 ± 0.74; to LIGEVAYFICHFSKVVARLF, 2.06 ± 0.075; to QSRWSFKTYYSREKW, -0.278 ± 0.39.
